{
  "source": "patent US20240218070A1",
  "about": "(MERUS N V, published 2024)",
  "binders": {"B1": {"name": "anti-human FAP bivalent monospecific IgG comprising heavy chain variable region SEQ ID NO: 69 (antibody, V domains shown)", "VH": "EVQLVETGGGLIQPGGSLRLSCAASGFTVSSNYMSWVRQAPGKGLEWVSVIYSGGSTYYADSVKGRFTISRDNSKNTLYLQMNSLRAEDTAVYYCARGPTDAYPYLDYLWGQGTLVTVSS", "VL": "not shown", "notes": "IgG1 format, common light chain VK1-39/JK1; also called human/mouse cross-reactive FAP IgG"}},
  "target": "T1, mouse FAP (moFAP) expressed on 293FF cells (mouse, UniProt P97321 1-761)",
  "T1 sequence": "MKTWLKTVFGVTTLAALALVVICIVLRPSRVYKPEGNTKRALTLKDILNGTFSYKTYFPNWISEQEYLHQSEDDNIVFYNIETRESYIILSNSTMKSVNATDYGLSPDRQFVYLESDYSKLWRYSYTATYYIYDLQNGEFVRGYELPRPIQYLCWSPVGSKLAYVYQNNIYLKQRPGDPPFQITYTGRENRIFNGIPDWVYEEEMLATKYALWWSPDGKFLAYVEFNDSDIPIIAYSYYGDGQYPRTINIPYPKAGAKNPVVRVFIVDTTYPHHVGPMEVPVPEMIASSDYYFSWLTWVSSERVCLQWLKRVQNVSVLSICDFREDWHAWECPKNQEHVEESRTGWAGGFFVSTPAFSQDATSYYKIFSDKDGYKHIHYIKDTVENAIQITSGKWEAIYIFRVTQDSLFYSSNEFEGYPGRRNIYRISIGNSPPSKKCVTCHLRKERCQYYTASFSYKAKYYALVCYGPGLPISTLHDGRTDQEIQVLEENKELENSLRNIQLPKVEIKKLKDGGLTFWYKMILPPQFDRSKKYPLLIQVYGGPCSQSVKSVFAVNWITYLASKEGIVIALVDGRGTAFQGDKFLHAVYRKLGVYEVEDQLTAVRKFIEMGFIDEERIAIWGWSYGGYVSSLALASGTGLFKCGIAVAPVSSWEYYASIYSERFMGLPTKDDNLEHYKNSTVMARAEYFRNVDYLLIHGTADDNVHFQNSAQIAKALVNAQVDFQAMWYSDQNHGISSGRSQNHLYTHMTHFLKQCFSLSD",
  "test": "FACS, 293FF cells transfected with moFAP, IgG at 2.5 ug/ml",
  "description": "The binding of all test and control antibodies to the cells was tested at a single concentration of 2.5 ug/ml. Goat-anti-human IgG F(ab)2-PE (Invitrogen, H10104) was used as secondary antibody (1:100 in FACS buffer). Ab0625 was used at 10 ug/ml and its binding was detected using Ab0250 (Becton Dickinson, 550767) (1:100 in FACS buffer). The FACS buffer containing PBS (Gibco, cat. #10010-015), 0.5% BSA (Thermo Scientific, cat. #37525), and 2 mM EDTA (Invitrogen, cat. #15575-020) was kept ice cold throughout the assay.\nThe target cells were harvested, counted, and centrifuged for 5 min at 300 g at 4 °C. Cells were then resuspended in FACS buffer at a concentration of 1×10⁶ cells/ml and transferred (200,000 cells/well) to a U-bottom 96-well FACS plate (BD, cat. #353910). Cells were then centrifuged for 3 min at 300 g at 4° C. and supernatant was discarded. 50 μl of primary antibody solutions were added to the cells, mixed, and incubated for 30 min at 2-8° C. in the dark. Cells were washed by adding 150 μl FACS buffer and centrifuged for 3 min at 300 g at 4° C. Supernatant was discarded, and cells were washed again by adding 200 μl FACS buffer to the plate. Cells were then centrifuged for 3 min at 300 g at 4° C. and afterwards the supernatant was discarded. 50 μl of secondary antibody solutions were added to the cells, mixed, and incubated for 30 min at 2-8° C. in the dark. […]",
  "data": [
    {"binder": "B1", "values": [
      {"measurement": "binding result", "result": "binds"}
    ]}
  ]
}
